In assay [1] the target is T1, recombinant human IL-1β (human, UniProt P01584 117-269). The experiment in a line: cell-based or functional assay.
The target in assay [2] is T2, recombinant human IL-1α (human, UniProt P01583 113-271).
T2 sequence: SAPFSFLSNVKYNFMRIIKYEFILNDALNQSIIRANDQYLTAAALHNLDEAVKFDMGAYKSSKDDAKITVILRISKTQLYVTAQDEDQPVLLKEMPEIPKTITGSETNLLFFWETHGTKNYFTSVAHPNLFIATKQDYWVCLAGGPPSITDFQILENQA
The experiment in a line: cell-based or functional assay.

Assay [3] has as its target T1, recombinant human IL-1β. The experiment in a line: SPR (Biacore).
Assay [4] concerns the target T2, recombinant human IL-1α. The experiment in a line: SPR (Biacore).

B1: hIL-1α/β DVD5a-Ig (bispecific antibody, human IgG1, kappa)
heavy: not shown
light: QIVLTQSPALMSASPGEKVTMTCSASSSVNYMYWYQQKPRSSPKPWIYLTSNLASGVPARFSGSGSGTSYSLTISSMEAEDAATYYCQQWNSNPYTFGGGTKLEMKRTVAAPQIVLTQSPAIMSASPGEKVTITCSASSSVSYMHWFQQKPGASPKLWIYSTSNLASGVPARFSGSGSGTSYSLTVSRMEAEDAATYYCQQRSTYPYTFGGGTKLEIKRTVAAPSVFIFPPSDEQLKSGTASVVCLLNNFYPREAKVQWKVDNALQSGNSQESVTEQDSKDSTYSLSSTLTLSKADYEKHKVYACEVTHQGLSSPVTKSFNRGEC
notes: 6H3.1A4.3E11 (outer) - short linker - 6B12.4F6 (inner), a-b-C orientation
Turning to B1, the “Potency (IC50) M, MRC-5 bioassay” value with recombinant human IL-1β [1] came to 19 nM; with recombinant human IL-1α [2] it was 2.6 nM. Besides, the Kd turned out to be 12.5 nM with recombinant human IL-1β [3] and 0.508 nM with recombinant human IL-1α [4].

B2: hIL-1α/β DVD3b-Ig (bispecific antibody, human IgG1, kappa)
heavy: not shown
light: ETTVTQSPASLSMAIGEKVTIRCITSTDIDVDMNWYQQKPGEPPKLLISQGNTLRPGVPSRFSSSGSGTDFVFIIENMLSEDVADYYCLQSDNLPLTFGAGTKLELKRTVAAPDIVMTQSQRFMSTSVGDRVSVTCKASQNVGTNIAWYQQKPGQSPRALIYSASYRYSGVPDRFTGSGSGTDFTLTISNVQSVDLAEYFCQQYTRYPLTFGGGTKLEIKRTVAAPSVFIFPPSDEQLKSGTASVVCLLNNFYPREAKVQWKVDNALQSGNSQESVTEQDSKDSTYSLSSTLTLSKADYEKHKVYACEVTHQGLSSPVTKSFNRGEC
notes: 1B12.4H4 (outer) - short linker - 18F4.2C8 (inner), b-a-C orientation
Take B2: the “Potency (IC50) M, MRC-5 bioassay” value with recombinant human IL-1β [1] came to 0.4 nM; with recombinant human IL-1α [2], 0.7 nM. Besides, the values for the Kd with recombinant human IL-1β [3] and with recombinant human IL-1α [4] were 0.19 nM and 1.24 nM, respectively.

B3: hIL-1α/β DVD3a-Ig (bispecific antibody, human IgG1, kappa)
heavy: not shown
light: DIVMTQSQRFMSTSVGDRVSVTCKASQNVGTNIAWYQQKPGQSPRALIYSASYRYSGVPDRFTGSGSGTDFTLTISNVQSVDLAEYFCQQYTRYPLTFGGGTKLEIKRTVAAPETTVTQSPASLSMAIGEKVTIRCITSTDIDVDMNWYQQKPGEPPKLLISQGNTLRPGVPSRFSSSGSGTDFVFIIENMLSEDVADYYCLQSDNLPLTFGAGTKLELKRRTVAAPSVFIFPPSDEQLKSGTASVVCLLNNFYPREAKVQWKVDNALQSGNSQESVTEQDSKDSTYSLSSTLTLSKADYEKHKVYACEVTHQGLSSPVTKSFNRGEC
notes: 18F4.2C8 (outer) - short linker - 1B12.4H4 (inner), a-b-C orientation
In the case of B3, in the assay with recombinant human IL-1α [2], the “Potency (IC50) M, MRC-5 bioassay” value is 0.75 nM. The Kd came to 63.7 nM with recombinant human IL-1β [3] and 0.837 nM in the assay with recombinant human IL-1α [4].

B4: hIL-1α/β DVD4a-Ig (bispecific antibody, human IgG1, kappa)
heavy: not shown
light: DIVMTQSQRFMSTSVGDRVSVTCKASQNVGTNIAWYQQKPGQSPRALIYSASYRYSGVPDRFTGSGSGTDFTLTISNVQSVDLAEYFCQQYTRYPLTFGGGTKLEIKRTVAAPSVFIFPPETTVTQSPASLSMAIGEKVTIRCITSTDIDVDMNWYQQKPGEPPKLLISQGNTLRPGVPSRFSSSGSGTDFVFIIENMLSEDVADYYCLQSDNLPLTFGAGTKLELKRTVAAPSVFIFPPSDEQLKSGTASVVCLLNNFYPREAKVQWKVDNALQSGNSQESVTEQDSKDSTYSLSSTLTLSKADYEKHKVYACEVTHQGLSSPVTKSFNRGEC
notes: 18F4.2C8 (outer) - long linker - 1B12.4H4 (inner), a-b-C orientation
With B4, the “Potency (IC50) M, MRC-5 bioassay” value is 10 nM with recombinant human IL-1β [1] and 0.35 nM with recombinant human IL-1α [2]. Moreover, the Kd was 0.93 nM with recombinant human IL-1β [3] and 0.701 nM with recombinant human IL-1α [4].

B5: hIL-1α/β DVD4b-Ig (bispecific antibody, human IgG1, kappa)
heavy: not shown
light: ETTVTQSPASLSMAIGEKVTIRCITSTDIDVDMNWYQQKPGEPPKLLISQGNTLRPGVPSRFSSSGSGTDFVFIIENMLSEDVADYYCLQSDNLPLTFGAGTKLELKRTVAAPSVFIFPPDIVMTQSQRFMSTSVGDRVSVTCKASQNVGTNIAWYQQKPGQSPRALIYSASYRYSGVPDRFTGSGSGTDFTLTISNVQSVDLAEYFCQQYTRYPLTFGGGTKLEIKRTVAAPSVFIFPPSDEQLKSGTASVVCLLNNFYPREAKVQWKVDNALQSGNSQESVTEQDSKDSTYSLSSTLTLSKADYEKHKVYACEVTHQGLSSPVTKSFNRGEC
notes: 1B12.4H4 (outer) - long linker - 18F4.2C8 (inner), b-a-C orientation
As to B5, the entries for the “Potency (IC50) M, MRC-5 bioassay” value with recombinant human IL-1β [1] and with recombinant human IL-1α [2] were 0.5 nM and 0.35 nM, respectively. The dissociation constant Kd with recombinant human IL-1β [3] came out at 0.128 nM; with recombinant human IL-1α [4], 0.56 nM.

The values above are taken from patent US20120201781A1 (AbbVie / Abbott, published 2012).
